The target in data set [1] is T1, GST-Arx (286-430) (UniProt O35085 286-430). Kind of data set: EMSA. A general note: A gel shift assay detects complexes by their altered migration in electrophoresis.
In data set [2] the target is T1, GST-Arx (286-430). Kind of data set: EMSA. The source holds these as a separate data set.
The target in data set [3] is T1, GST-Arx (286-430). Kind of data set: competition.

Residue numbers refer to the chain shown, from its start.

T1 sequence (O35085 286-430): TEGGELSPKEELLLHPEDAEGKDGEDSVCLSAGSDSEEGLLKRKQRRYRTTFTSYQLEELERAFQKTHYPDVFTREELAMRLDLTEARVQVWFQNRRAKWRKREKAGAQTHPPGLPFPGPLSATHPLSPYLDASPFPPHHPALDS

B1: Ebf3 probe (dsDNA)
DNA 1: GCGATTTTCCCGATTAATTAAAATATTAACGCA
DNA 2: GTGCGTTAATATTTTAATTAATCGGGAAAATCG
Turning to B1, the binding result in the data set with GST-Arx (286-430) [1] is “binds”.

B2: Shox2 probe (dsDNA)
DNA 1: GCAAAATCCACGCTTAATTAAATTAATTAGGGA
DNA 2: GTCCCTAATTAATTTAATTAAGCGTGGATTTTG
Consider B2, for which the binding result with GST-Arx (286-430) [2] is “binds”.

B3: Lmo1 probe (dsDNA)
DNA 1: GTAATGAATTGATTTAATTAACAGGGGAGTCTGA
DNA 2: GTCAGACTCCCCTGTTAATTAAATCAATTCATTA
For B3, the binding result in the data set with GST-Arx (286-430) [2] was “binds”.

B4: Lmo1mut2 (dsDNA)
DNA 1: B3 DNA 1 with T9C, T10C
DNA 2: B3 DNA 2 with A26G, A27G
As to B4, the binding result with GST-Arx (286-430) [3] is on record as “binds”.

B5: Lmo1mut1 (dsDNA)
DNA 1: B3 DNA 1 with A16C, A17C
DNA 2: B3 DNA 2 with T19G, T20G
With B5, the binding result with GST-Arx (286-430) [3] is given as “no binding”.
